{"source": "paper PMC5995566", "key": {"human S100A6 (human) [1]": {"molecular_target": "human S100A6 (human)", "assay": "ITC"}, "human S100A6 (human) [2]": {"molecular_target": "human S100A6 (human)", "assay": "ITC", "remark": "listed apart in the source"}}, "note": "Like-named read-outs stand apart in the source and are kept apart here."}
{"substance": "peptide from Siah-interacting protein (SIP) (from UniProt Q9HB71 188-218)", "values": [{"measurement": "Kd", "setting": "human S100A6 (human) [1]", "result": 26, "unit": "µM"}, {"measurement": "dH", "setting": "human S100A6 (human) [1]", "result": 2.9, "unit": "kcal/mol"}, {"measurement": "fx comp", "setting": "human S100A6 (human) [1]", "result": 1.5}, {"measurement": "Kd", "setting": "human S100A6 (human) [2]", "result": 20, "unit": "µM"}]}
